Results from paper PMC3829167, “Directed Evolution of an Angiopoietin-2 Ligand Trap by Somatic Hypermutation and Cell Surface Display*” (The Journal of Biological Chemistry, 2013).

Key:
[1] = target: T1, human angiopoietin 1 (human, UniProt Q15389 16-498); assay: ELISA; 5 μg/ml Ang1 or Ang2 immobilised in 96-well plates; blocked with TBS, 1 mg/ml BSA, 0.1% Triton-X 100; ectodomain-Fc fusion protein bound for 1 h at different concentrations, detected with anti-Tie2 ectodomain antibodies; saturation binding curves fitted by nonlinear regression; conditions: both partners purified
T1 construct: human angiopoietin 1 (Ang1), recombinant protein from R&D Systems; in the other experiments it was detected with anti-Ang1 or immobilised; also called Ang1; source: bought: R&D Systems
T1 sequence (looked up): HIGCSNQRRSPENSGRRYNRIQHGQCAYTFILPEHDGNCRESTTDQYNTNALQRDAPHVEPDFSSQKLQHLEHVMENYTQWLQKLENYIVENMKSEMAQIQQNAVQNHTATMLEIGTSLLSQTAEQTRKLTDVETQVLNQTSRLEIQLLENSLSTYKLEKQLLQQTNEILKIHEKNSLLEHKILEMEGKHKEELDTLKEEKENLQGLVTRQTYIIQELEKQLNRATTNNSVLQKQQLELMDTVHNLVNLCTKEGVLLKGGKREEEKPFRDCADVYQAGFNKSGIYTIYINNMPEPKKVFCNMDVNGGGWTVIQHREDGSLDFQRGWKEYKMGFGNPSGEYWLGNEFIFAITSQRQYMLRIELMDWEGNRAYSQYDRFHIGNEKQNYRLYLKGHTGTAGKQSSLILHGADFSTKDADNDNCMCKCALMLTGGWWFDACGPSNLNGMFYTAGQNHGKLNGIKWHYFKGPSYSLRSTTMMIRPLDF

[2] = target: T2, human angiopoietin 2 (human, UniProt O15123 19-496); assay: as above; conditions: both partners purified
T2 construct: human angiopoietin 2 (Ang2), recombinant protein from R&D Systems; also called Ang2; source: bought: R&D Systems
T2 sequence (looked up): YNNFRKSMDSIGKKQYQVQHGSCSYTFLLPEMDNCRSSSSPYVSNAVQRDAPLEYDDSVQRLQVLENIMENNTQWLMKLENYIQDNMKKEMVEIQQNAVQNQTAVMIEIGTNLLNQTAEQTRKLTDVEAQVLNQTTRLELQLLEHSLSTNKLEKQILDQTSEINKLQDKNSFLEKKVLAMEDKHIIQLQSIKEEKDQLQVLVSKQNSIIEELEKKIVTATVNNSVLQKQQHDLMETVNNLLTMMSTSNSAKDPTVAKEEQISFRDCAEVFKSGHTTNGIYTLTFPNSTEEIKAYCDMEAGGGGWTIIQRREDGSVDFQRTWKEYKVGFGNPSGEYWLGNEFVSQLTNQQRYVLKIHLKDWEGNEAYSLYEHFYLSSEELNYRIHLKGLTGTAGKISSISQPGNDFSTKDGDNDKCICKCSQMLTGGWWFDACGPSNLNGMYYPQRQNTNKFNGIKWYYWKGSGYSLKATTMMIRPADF

B1: soluble Tie2 ectodomain (1-442)-Fc fusion protein with F161I substitution (Fc fusion, human, UniProt Q02763 23-442, looked up)
chain: AMDLILINSLPLVSDAETSLTCIASGWRPHEPITIGRDFEALMNQHQDPLEVTQDVTREWAKKVVWKREKASKINGAYFCEGRVRGEAIRIRTMKMRQQASFLPATLTMTVDKGDNVNISFKKVLIKEEDAVIYKNGSIIHSVPRHEVPDILEVHLPHAQPQDAGVYSARYIGGNLFTSAFTRLIVRRCEAQKWGPECNHLCTACMNNGVCHEDTGECICPPGFMGRTCEKACELHTFGRTCKERCSGQEGCKSYVFCLPDPYGCSCATGWKGLQCNEACHPGFYGPDCKLRCSCNNGEMCDRFQGCLCSPGWQGLQCEREGIQRMTPKIVDLPDHIEVNSGKFNPICKASGWPLPTNEEMTLVKPDGTVLHPKDFNHTDHFSVAIFTIHRILPPDSGVWVCSVNTVAGMVEKPFNISVK
notes: signal peptide in the construct; human Tie2 ectodomain, residues 1-442, F161I; also called F/I; F161I ectodomain; source: HEK293 cells, transfected, secreted, purified (nickel-nitrilotriacetic acid chromatography); not shown: Fc (human), C-terminal, kept
[1]
  Max binding (% of WT): 97.8 % of WT
[2]
  Max binding (% of WT): 90.5 % of WT

B2: soluble evolved (R3) Tie2 ectodomain (1-442)-Fc fusion protein (Fc fusion, human, UniProt Q02763 23-442, looked up)
chain: AMDLILINSLPLVSDAETSLTCIASGWRPHEPITIGRDFEALMNQHQDPLEVTQDVTREWAKKVVWKREKASKINGAYFCEGRVRGEAIRIRTMKMRQQASFLPATLTMTVDKGDNVNISFKKVLIKEEDAVIYKNGSIIHSVPEVPDILEVHLPHAQPQDAGVYSARYIGGNLFTSAFTRLIVRRCEAQKWGPECNHLCTACMNNGVCHEDTGECICPPGFMGRTCEKACELHTFGRTCKERCSGQEGCKSYVFCLPDPYGCSCATGWKGLQCNEACHPGFYGPDCKLRCSCNNGEMCDRFQGCLCSPGWQGLQCEREGIQRMTPKIVDLPDHIEVNSGKFNPICKASGWPLPTNEEMTLVKPDGTVLHPKDFNHTDHFSVAIFTIHRILPPDSGVWVCSVNTVAGMVEKPFNISVK
notes: signal peptide in the construct; human Tie2 ectodomain, residues 1-442, with F161I and the deletion of Arg-167/His-168 introduced by site-directed mutagenesis; The changes were found by directed evolution and put into m3 by site-directed mutagenesis; also called evolved ectodomain; R3 ectodomain; source: HEK293 cells, transfected, secreted, purified (nickel-nitrilotriacetic acid chromatography); …
[1]
  Max binding (% of WT): 3 % of WT
[2]
  Max binding (% of WT): 59.4 % of WT

B3: soluble Tie2 ectodomain (1-442)-Fc fusion protein with the double Arg-167/His-168 deletion (Fc fusion, human, UniProt Q02763 23-442, looked up)
chain: AMDLILINSLPLVSDAETSLTCIASGWRPHEPITIGRDFEALMNQHQDPLEVTQDVTREWAKKVVWKREKASKINGAYFCEGRVRGEAIRIRTMKMRQQASFLPATLTMTVDKGDNVNISFKKVLIKEEDAVIYKNGSFIHSVPEVPDILEVHLPHAQPQDAGVYSARYIGGNLFTSAFTRLIVRRCEAQKWGPECNHLCTACMNNGVCHEDTGECICPPGFMGRTCEKACELHTFGRTCKERCSGQEGCKSYVFCLPDPYGCSCATGWKGLQCNEACHPGFYGPDCKLRCSCNNGEMCDRFQGCLCSPGWQGLQCEREGIQRMTPKIVDLPDHIEVNSGKFNPICKASGWPLPTNEEMTLVKPDGTVLHPKDFNHTDHFSVAIFTIHRILPPDSGVWVCSVNTVAGMVEKPFNISVK
notes: signal peptide in the construct; human Tie2 ectodomain, residues 1-442, Arg-167 and His-168 deleted; also called ΔRH; ΔArg-167/His-168; source: HEK293 cells, transfected, secreted, purified (nickel-nitrilotriacetic acid chromatography); not shown: Fc (human), C-terminal, kept
[1]
  Max binding (% of WT): 0.29 % of WT
[2]
  Max binding (% of WT): 0.58 % of WT
